The target in assay [1] is T1, human CD3e/d protein (Sinobiological, CAT: CT038-H2508H-B) (human, UniProt P07766 23-126; P04234 22-105).
T1 construct: Bought reagent; also called hCD3e/d
In words: ELISA, coated hCD3e/d. On the procedure: (§1) Human CD3e/g protein, cynomolgus monkey CD3e/g protein (sequences shown in Table 1) or human CD3e/d protein was diluted with PBS to a final concentration of 5.0 μg/mL, and then added with 100 μl per well to a 96-well ELISA plate. The plate was sealed with plastic film and incubated overnight at 4° C. The plate was washed twice with plate washing solution [PBS+0.01% (v/v) Tween 20] on the next day, and was added with blocking solution [PBS+0.01% (v/v) Tween 20+1% (w/w) BSA] to block at room temperature for 2 hours. The blocking solution was poured off, and 100 μl per well of the purified CD3e/g antibody obtained in Example 2 was added. After incubation at 37° C. for 2 hours, the plate was washed 3 times with plate washing solution [PBS+0.01% (v/v) Tween20]. After adding HRP (horseradish peroxidase) labeled secondary antibody (purchased from Sigma), the plate was incubated at 37° C. for 2 hours, washed 3 times with plate washing solution [PBS+0.01% (v/v) Tween 20]. After adding 100 μl per well of TMB substrate and incubating at room temperature for 30 minutes, 100 μl per well of stop solution (1.0N HCl) was added. […] FIG. 2 and Table 3 show the binding activities of CD3e/g antibodies to hCD3e/g as detected by ELISA, and FIG. 3 and Table 4 show the binding activities of CD3e/g antibodies to cyno CD3e/g as detected by ELISA, wherein the IgG control is mouse IgG, and the data in the tables are OD_{450 nm} values. Among them, HIT3a was purchased from BD pharmigen with a catalog number 555336; SP34 was purchased from BD pharmigen with a catalog number 551916. OKT3 was purchased from Biolegend.

Assay [2] concerns the target T2, Cynomolgus monkey CD3e/g protein (cynomolgus monkey).
T2 construct: also called cyno CD3e/g; cCD3e/g
In words: ELISA, coated cyno CD3e/g. On the procedure:
as §1
For orientation: An ELISA detects its analyte on a solid surface through an enzyme-linked reagent.

The EC50 is the concentration that produces a half-maximal response.

Positions count from the first letter of the chain named.

B1: mAb001 (antibody, V domains shown)
VH: QVQLQQSGPELVKPGASVKISCKASGYSFTNYYMHWVKQRPGQGLEWIGWTYPGNNNIKYNEKFKGKATLTADTSSSTAYMQLSSLTSEDSAVYYCARDGYGYYFFDYWGQGIILTVSS
VL: DIVMSQSPSSLAVSAGEKVTMSCKSSQSLLNNRTRKNYLAWYQQKPGQSPKLLIYWASTRESGVPDRFTGSGSGTDFTLTISSVQAEDLAIYYCKQSYTLRTFGGGTKLAIK
notes: Mouse hybridoma antibody; The variable regions are printed as CAb001 VH/VL
In the case of B1, in assay [1], a half-maximal response (EC50) required 0.022 nM, the “Emax (OD)” value was 3.05 OD, the “OD450 nm at 0.00128 nM” value is 0.27 OD450 nm and the “OD450 nm at 0.0064 nM” value turned out to be 0.72 OD450 nm. In assay [1], the “OD450 nm at 0.032 nM” value amounted to 1.83 OD450 nm, the “OD450 nm at 0.16 nM” value is 2.72 OD450 nm, the “OD450 nm at 0.8 nM” value was 2.96 OD450 nm and the “OD450 nm at 4 nM” value is 2.99 OD450 nm. Further, in assay [1], the “OD450 nm at 20 nM” value was found to be 3.05 OD450 nm and the “OD450 nm at 100 nM” value amounted to 3.02 OD450 nm. For the same molecule, in assay [2], the 50% effective concentration (EC50) is 0.33 nM, the “OD450 nm at 0.000853 nM” value was determined as 0.164 OD450 nm, the “OD450 nm at 0.0043 nM” value was determined as 0.152 OD450 nm and the “OD450 nm at 0.02 nM” value is 0.17 OD450 nm. In assay [2], the “OD450 nm at 0.11 nM” value stood at 0.64 OD450 nm, the “OD450 nm at 0.53 nM” value came out at 2.43 OD450 nm, the “OD450 nm at 2.67 nM” value was determined as 3.45 OD450 nm and the “OD450 nm at 13.3 nM” value came to 3.5 OD450 nm. In addition, the “OD450 nm at 66.7 nM” value in assay [2] stood at 3.49 OD450 nm.

B2: mAb007 (antibody, V domains shown)
VH: QVQLQQSGPELVKPGASVKISCKASGSTFTDNYIHWVKQRPGQGLEWIGWIYPGSVNIKYNEKFKDKATLTADTSSTTAYMQLSSLSSEDSAIYYCARDISRYYFDYWGQGTTLTVSS
VL: B1 VL with K18R, S22N, N32S, I91V, Y98F, T99I
notes: Mouse hybridoma antibody; The variable regions are printed as CAb007 VH/VL
As to B2, in assay [1], the response was half-maximal at 0.017 nM (EC50), the “Emax (OD)” value was 3.04 OD, the “OD450 nm at 0.00128 nM” value was determined as 0.26 OD450 nm and the “OD450 nm at 0.0064 nM” value stood at 0.71 OD450 nm. In assay [1], the “OD450 nm at 0.032 nM” value was 2.02 OD450 nm, the “OD450 nm at 0.16 nM” value was 2.86 OD450 nm, the “OD450 nm at 0.8 nM” value was 2.96 OD450 nm and the “OD450 nm at 4 nM” value was 2.99 OD450 nm. In assay [1], the “OD450 nm at 20 nM” value came out at 3.01 OD450 nm and the “OD450 nm at 100 nM” value came out at 3.04 OD450 nm. For the same molecule, in assay [2], the 50% effective concentration (EC50) was determined as 0.26 nM, the “OD450 nm at 0.000853 nM” value was 0.0902 OD450 nm, the “OD450 nm at 0.0043 nM” value came out at 0.128 OD450 nm and the “OD450 nm at 0.02 nM” value worked out at 0.22 OD450 nm. In addition, in assay [2], the “OD450 nm at 0.11 nM” value was found to be 0.73 OD450 nm, the “OD450 nm at 0.53 nM” value worked out at 2.7 OD450 nm, the “OD450 nm at 2.67 nM” value worked out at 3.45 OD450 nm and the “OD450 nm at 13.3 nM” value amounted to 3.47 OD450 nm. The “OD450 nm at 66.7 nM” value in assay [2] is 3.49 OD450 nm.

B3: mAb008 (antibody, V domains shown)
VH: QVQLQQSGAELARPGASVKMSCKTSGYTFTDYTVNWVKQRPGQGLEWIGYINPFNSYTKYNQKFKDKATLTADKSSSTAYMQLSSLTSEDSAVYFCANSVSTYWGQGTTLTVSS
VL: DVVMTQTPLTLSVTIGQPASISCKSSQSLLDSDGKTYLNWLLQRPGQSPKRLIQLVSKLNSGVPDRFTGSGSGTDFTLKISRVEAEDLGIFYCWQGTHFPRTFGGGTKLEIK
notes: Mouse hybridoma antibody
Consider B3, for which, in assay [1], the response was half-maximal at 0.041 nM (EC50), the “Emax (OD)” value is 3.05 OD, the “OD450 nm at 0.00128 nM” value was found to be 0.16 OD450 nm and the “OD450 nm at 0.0064 nM” value was determined as 0.53 OD450 nm. Moreover, in assay [1], the “OD450 nm at 0.032 nM” value was 1.31 OD450 nm, the “OD450 nm at 0.16 nM” value stood at 2.48 OD450 nm, the “OD450 nm at 0.8 nM” value is 2.88 OD450 nm and the “OD450 nm at 4 nM” value was 2.96 OD450 nm. Further, in assay [1], the “OD450 nm at 20 nM” value was 3 OD450 nm and the “OD450 nm at 100 nM” value stood at 3.05 OD450 nm. Further, in assay [2], the EC50 was found to be 0.44 nM, the “OD450 nm at 0.000853 nM” value is 0.0893 OD450 nm, the “OD450 nm at 0.0043 nM” value is 0.111 OD450 nm and the “OD450 nm at 0.02 nM” value amounted to 0.16 OD450 nm. In assay [2], the “OD450 nm at 0.11 nM” value stood at 0.48 OD450 nm, the “OD450 nm at 0.53 nM” value is 2.03 OD450 nm, the “OD450 nm at 2.67 nM” value stood at 3.32 OD450 nm and the “OD450 nm at 13.3 nM” value worked out at 3.48 OD450 nm. For the same molecule, the “OD450 nm at 66.7 nM” value in assay [2] was 3.42 OD450 nm.

The record behind these values is patent US20250346668A1 (GENOR BIOPHARMA, published 2025).
